Laboratory results as given in the Immune Epitope Database (IEDB).

Key:
Assay in all cases: IEDB peptide-MHC binding, purified MHC/competitive/fluorescence; filed as Kd, often an IC50 or EC50 that approximates it; ≥ and ≤ were set here for values at or beyond the usual limits of such assays
Settings in all cases: source organism: Entamoeba histolytica HM-1:IMSS
HLA-A*01:01 = molecular target: HLA-A*01:01
HLA-A*02:01 = molecular target: HLA-A*02:01
HLA-A*02:11 = molecular target: HLA-A*02:11
HLA-A*02:16 = molecular target: HLA-A*02:16
HLA-A*02:19 = molecular target: HLA-A*02:19
HLA-A*03:01 = molecular target: HLA-A*03:01
HLA-A*11:01 = molecular target: HLA-A*11:01
HLA-A*23:01 = molecular target: HLA-A*23:01
HLA-A*30:01 = molecular target: HLA-A*30:01
HLA-A*30:02 = molecular target: HLA-A*30:02
HLA-A*66:01 = molecular target: HLA-A*66:01
HLA-A*68:02 = molecular target: HLA-A*68:02
HLA-B*14:02 = molecular target: HLA-B*14:02
HLA-B*15:01 = molecular target: HLA-B*15:01
HLA-B*15:17 = molecular target: HLA-B*15:17
HLA-B*18:01 = molecular target: HLA-B*18:01
HLA-B*27:03 = molecular target: HLA-B*27:03
HLA-B*27:05 = molecular target: HLA-B*27:05
HLA-B*39:01 = molecular target: HLA-B*39:01
HLA-B*44:02 = molecular target: HLA-B*44:02
HLA-B*46:01 = molecular target: HLA-B*46:01
HLA-B*53:01 = molecular target: HLA-B*53:01
HLA-B*57:01 = molecular target: HLA-B*57:01
HLA-B*58:01 = molecular target: HLA-B*58:01

Q: EVRKAIEFV was tested. Which Kd (HLA-A*01:01) did it give?
A: ≥ 5 µM

Q: And the Kd (HLA-A*02:01)?
A: ≥ 20 µM

Q: What about the Kd (HLA-A*02:11) of the same sequence?
A: ≥ 20 µM

Q: What about the Kd (HLA-A*02:16) of the same sequence?
A: ≥ 20 µM

Q: And the Kd (HLA-A*02:19)?
A: ≥ 20 µM

Q: What about the Kd (HLA-A*03:01) of the same sequence?
A: ≥ 20 µM

Q: What about the Kd (HLA-A*11:01) of the same sequence?
A: ≥ 5 µM

Q: And the Kd (HLA-A*23:01)?
A: 1.3 µM

Q: What about the Kd (HLA-A*30:01) of the same sequence?
A: ≥ 5 µM

Q: And the Kd (HLA-A*30:02)?
A: ≥ 5 µM

Q: What about the Kd (HLA-A*66:01) of the same sequence?
A: 0.279 µM

Q: What about the Kd (HLA-A*68:02) of the same sequence?
A: ≤ 0.001 µM

Q: And the Kd (HLA-B*14:02)?
A: ≥ 5 µM

Q: What about the Kd (HLA-B*15:01) of the same sequence?
A: ≥ 20 µM

Q: What about the Kd (HLA-B*15:17) of the same sequence?
A: ≥ 20 µM

Q: And the Kd (HLA-B*18:01)?
A: ≥ 20 µM

Q: What about the Kd (HLA-B*27:03) of the same sequence?
A: ≥ 20 µM

Q: And the Kd (HLA-B*27:05)?
A: ≥ 5 µM

Q: And the Kd (HLA-B*39:01)?
A: ≥ 20 µM

Q: And the Kd (HLA-B*44:02)?
A: ≥ 5 µM

Q: What about the Kd (HLA-B*46:01) of the same sequence?
A: ≥ 20 µM

Q: And the Kd (HLA-B*53:01)?
A: ≥ 5 µM

Q: And the Kd (HLA-B*57:01)?
A: ≥ 20 µM

Q: What about the Kd (HLA-B*58:01) of the same sequence?
A: ≥ 5 µM
